T1: rhesus recombinant CD70 (FLAG-TNC-rhesus CD70) (rhesus macaque (Macaca mulatta), UniProt F7GPA5 174-316)
T1 construct: also called rhesus Flag-TNC-CD70; Rhesus monkey; not shown: Flag tag and TNC trimerisation domain
T1 sequence: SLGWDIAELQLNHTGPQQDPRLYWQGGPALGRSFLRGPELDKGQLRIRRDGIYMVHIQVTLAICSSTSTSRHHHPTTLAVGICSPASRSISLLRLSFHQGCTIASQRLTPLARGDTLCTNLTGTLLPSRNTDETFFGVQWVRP


Columns and labels:
[1] = molecular target: cynomolgus monkey Flag-TNC-CD70 (cynomolgus monkey); assay: CD27-CD70 inhibition ELISA, cynomolgus Flag-TNC-CD70
[2] = molecular target: T1, rhesus recombinant CD70 …; assay: CD27-CD70 inhibition ELISA, rhesus Flag-TNC-CD70
Description: In this assay, a microtiter plate (Nunc Maxisorb) was first coated with 100 µl anti-FLAG M2 monoclonal antibody (Sigma Aldrich, F3165) at 1250-fold dilution in PBS (to achieve a final concentration of approximately 3.5 µg/ml) overnight at 4° C. The plate was washed once with PBS-Tween and incubated at RT for 2 hours with 300 µl PBS-1% casein. The plate was washed a further three times with PBS-Tween. 100 µl of 5 ng/ml (80 pM) Flag-TNC-CD70 (The Journal of Immunology, 2009, 183: 1851-1861) diluted in PBS-0.1% casein was added to the plate and incubated at RT for 1 hour while shaking. The plate was washed five times with PBS-Tween. The CD70 mAb to be tested was added to the plate; various concentrations were achieved by diluting the stock antibody solution in PBS-0.1% casein. Immediately thereafter, 50 µl of 1 µg/ml (final concentration 6.5 nM) recombinant human CD27 Fc chimera (R&D systems 382-CD, MW = 46.5 kDa) was added, and incubated at RT for 1 hour while shaking. The plate was washed five times with PBS Tween. 100 µl of biotinylated anti-CD27 (eBioscience 13-0271), diluted 500-fold in PBS-0.1% casein, was added, and the plate incubated at RT for a further hour, while shaking. The plate was washed five times with PBS Tween. […] 100 µl TMB was added to the plate and the OD at 620 nm was measured. […]

[3] = molecular target: T1, rhesus recombinant CD70 …; assay: Biacore off-rate, Fab over immobilised rhesus CD70

Row | Binder | IC50 [1] | IC50 [2] | binding result [3]
1 | ARGX-110 (non-fucosylated human IgG1 of germlined 27B3 clone 41D12) (antibody, V domains shown, also called ARGX-100; 41D12 (ARGX-110)) VH: EVQLVESGGGLVQPGGSLRLSCAASGFTFSVYYMNWVRQAPGKGLEWVSDINNEGGTTYYADSVKGRFTISRDNSKNSLYLQMNSLRAEDTAVYYCARDAGYSNHVPIFDSWGQGTLVTVSS VL: QAVVTQEPSLTVSPGGTVTLTCGLKSGSVTSDNFPTWYQQTPGQAPRLLIYNTNTRHSGVPDRFSGSILGNKAALTITGAQADDEAEYFCALFISNPSVEFGGGTQLTVLG | 0.048 µg/mL | 0.075 µg/mL | –
2 | 59D10 Fab (Fab, V domains shown, Llama-derived Fab from phage display; MYC tag at C-terminus of Fd) VH: EVQLVESGGGLVQPGGSLRLSCAASELSFSISEMTWVRQAPGKGLEWVSGISGVTGGSSTSYADSVKGRFTISRDNDKNTLYLQMNSLIPEDTAVYYCATTSGTYYFIPEYEYWGQGTQVTVSS VL: QSVLTQPPSVSGSPGKTVTISCAGTSSDVGYGYYVSWYQQFPGMAPKLLIYDVNKRASGIADRFSGSKAGNTASLTISGLQSEDEADYYCASYRSSANAVFGGGTHLTVLG | – | – | no binding

From patent publication US20230265201A1 (published 2023)
